Measurements as given in patent publication US20030060435.

Key:
[1] = target: glyceraldehyde-3-phosphate dehydrogenase
[2] = target: human wild-type p53 protein, P04637
[3] = target: T1, mouse wild-type p53 protein, P02340
T1 chain: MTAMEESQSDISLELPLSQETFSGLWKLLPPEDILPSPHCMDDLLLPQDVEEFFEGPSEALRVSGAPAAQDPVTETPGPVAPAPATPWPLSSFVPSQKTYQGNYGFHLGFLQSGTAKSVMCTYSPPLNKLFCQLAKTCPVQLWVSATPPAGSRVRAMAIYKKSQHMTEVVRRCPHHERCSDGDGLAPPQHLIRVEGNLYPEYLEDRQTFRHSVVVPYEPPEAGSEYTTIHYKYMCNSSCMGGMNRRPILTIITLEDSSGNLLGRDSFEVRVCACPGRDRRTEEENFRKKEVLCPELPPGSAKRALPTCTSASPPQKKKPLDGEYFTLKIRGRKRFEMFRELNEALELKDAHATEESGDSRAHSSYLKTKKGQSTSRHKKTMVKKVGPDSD

Chain of human wild-type p53 protein, P04637 (P04637 whole entry, looked up): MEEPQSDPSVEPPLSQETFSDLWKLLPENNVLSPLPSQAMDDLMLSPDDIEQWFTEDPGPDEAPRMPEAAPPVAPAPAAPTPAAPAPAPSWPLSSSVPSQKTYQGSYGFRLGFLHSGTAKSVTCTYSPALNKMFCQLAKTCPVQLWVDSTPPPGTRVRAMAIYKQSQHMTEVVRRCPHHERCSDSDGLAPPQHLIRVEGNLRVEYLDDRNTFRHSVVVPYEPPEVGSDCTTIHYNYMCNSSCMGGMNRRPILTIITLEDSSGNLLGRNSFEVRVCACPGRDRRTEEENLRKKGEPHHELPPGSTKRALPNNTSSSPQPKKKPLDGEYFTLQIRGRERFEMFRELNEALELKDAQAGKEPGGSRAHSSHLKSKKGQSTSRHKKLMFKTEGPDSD

B1: bovine m-calpain (Sigma) (protein)
chain 1: AGIAAKLAKDREAAEGLGSHERAVKYLNQDYAALRDECLEAGALFQDPSFPALPSSLGFKELGPYSSKTRGIEWKRPTEICDNPQFITGGATRTDICQGALGDCWLLAAIASLTLNEEILARVVPLDQSFQENYAGIFHFQFWQYGEWVEVVVDDRLPTKDGELLFVHSAEGSEFWSALLEKAYAKINGCYEALSGGATTEGFEDFTGGIAEWYELRKAPPNLFRIIQKALQKGSLLGCSIDITSAADSEAITFQKLVKGHAYSVTGAEEVESRGSLQKLIRIRNPWGEVEWTGQWNDNCPNWNTVDPEVRETLTRQHEDGEFWMSFNDFLRHYSRLEICNLTPDTLTSDSYKKWKLTKMDGNWRRGSTAGGCRNYPNTFWMNPQYLIKLEEEDEDQEDGESGCTFLVGLIQKHRRRQRKMGEDMHTIGFGIYEVPEELTGQTNIHLSKKFFLTTRARERSDTFINLREVLNRFKLPPGEYIVVPSTFEPNKDGDFCIRVFSEKKADYQVVDDEIEANIDEIDISEDDIDDGFRRLFAQLAGEDAEISAFELQTILRRVLAKRQDIKSDGFSIETCKIMVDMLDSDGSGKLGLKEFYILWTKIQKYQKIYREIDVDRSGTMNSYEMRKALEEAGFKMPCQLHQVIVARFADDDLIIDFDNFVRCLIRLETLFRIFKQLDPENTGMIQLDLISWLSFSVL
chain 2: MFLVNSFLKGGGGGGGGGGLGGGLGNVLGGLISGAGGGGGGGGGGGGGGGGTAMRILGGVISAISEAAAQYNPEPVPPRTHYSNIEANESEEVRQFRRLFAQLAGDDMEVSATELMNILNKVVTRHPDLKTDGFGIDTCRSMVAVMDSDTTGKLGFEEFKYLWNNIKKWQAVYKQFDVDRSGTIGSSELPGAFEAAGFRLNEHLYNMIIRRYSDEGGNMDFDNFISCLVRLDAMFRAFKSLDKDGTGQIQVNIQEWLQLTMYS
Dihydrofolate reductase
  degradation of the protein in reticulocyte lysate with calcium and m-calpain: The degradation resistance of other proteins such as dihydrofolate reductase or glyceraldehyde-3-phosphate dehydrogenase under the same experimental conditions
[1]
  degradation of the protein in reticulocyte lysate with calcium and m-calpain: The degradation resistance of other proteins such as dihydrofolate reductase or glyceraldehyde-3-phosphate dehydrogenase under the same experimental conditions
[2]
  degradation of the in vitro translated protein in reticulocyte lysate with calcium (electrophoresis): led to the rapid disappearance of the neosynthesized proteins and the appearance of proteolytic fragments
[3]
  degradation of the in vitro translated protein in reticulocyte lysate with calcium (electrophoresis): led to the rapid disappearance of the neosynthesized proteins and the appearance of proteolytic fragments
